According to patent US20190062438A1 (CSL, published 2019):

Columns and labels:
human CD131 = target: T1, human CD131 (human, UniProt P32927 17-897); test: cell-based or functional assay
T1 sequence: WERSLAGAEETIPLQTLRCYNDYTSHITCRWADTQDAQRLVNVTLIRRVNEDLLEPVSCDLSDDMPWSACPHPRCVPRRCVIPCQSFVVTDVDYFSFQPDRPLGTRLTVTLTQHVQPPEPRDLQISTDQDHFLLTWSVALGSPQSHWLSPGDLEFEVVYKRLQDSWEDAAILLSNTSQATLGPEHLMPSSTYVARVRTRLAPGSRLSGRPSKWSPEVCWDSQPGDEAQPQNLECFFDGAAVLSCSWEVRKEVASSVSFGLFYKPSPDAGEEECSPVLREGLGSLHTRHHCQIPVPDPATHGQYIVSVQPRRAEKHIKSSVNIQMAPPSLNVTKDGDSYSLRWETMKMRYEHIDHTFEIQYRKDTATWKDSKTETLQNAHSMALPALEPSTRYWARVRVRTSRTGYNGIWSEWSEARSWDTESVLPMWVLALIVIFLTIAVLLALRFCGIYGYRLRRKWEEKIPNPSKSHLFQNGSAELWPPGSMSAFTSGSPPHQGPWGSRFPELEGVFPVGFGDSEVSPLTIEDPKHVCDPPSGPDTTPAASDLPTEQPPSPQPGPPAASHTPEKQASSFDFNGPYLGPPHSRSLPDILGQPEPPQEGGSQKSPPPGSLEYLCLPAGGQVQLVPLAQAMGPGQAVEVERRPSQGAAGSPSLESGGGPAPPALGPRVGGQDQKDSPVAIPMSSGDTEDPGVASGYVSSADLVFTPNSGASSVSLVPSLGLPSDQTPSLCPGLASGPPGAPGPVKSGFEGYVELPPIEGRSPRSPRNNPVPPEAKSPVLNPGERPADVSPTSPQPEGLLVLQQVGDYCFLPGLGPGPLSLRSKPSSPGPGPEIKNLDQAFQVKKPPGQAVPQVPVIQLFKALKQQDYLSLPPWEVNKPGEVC

human IL-3R α-chain = target: T2, human IL-3R α-chain (human, UniProt P26951 19-378); test: flow cytometry, transiently transfected cells
T2 construct: also called Hu-IL3R α chain

human GM-CSFR α-chain = target: T3, human GM-CSFR α-chain (human, UniProt P15509 23-400); test: flow cytometry, transiently transfected cells
T3 construct: whole, on cells; also called GMRα
T3 sequence (looked up): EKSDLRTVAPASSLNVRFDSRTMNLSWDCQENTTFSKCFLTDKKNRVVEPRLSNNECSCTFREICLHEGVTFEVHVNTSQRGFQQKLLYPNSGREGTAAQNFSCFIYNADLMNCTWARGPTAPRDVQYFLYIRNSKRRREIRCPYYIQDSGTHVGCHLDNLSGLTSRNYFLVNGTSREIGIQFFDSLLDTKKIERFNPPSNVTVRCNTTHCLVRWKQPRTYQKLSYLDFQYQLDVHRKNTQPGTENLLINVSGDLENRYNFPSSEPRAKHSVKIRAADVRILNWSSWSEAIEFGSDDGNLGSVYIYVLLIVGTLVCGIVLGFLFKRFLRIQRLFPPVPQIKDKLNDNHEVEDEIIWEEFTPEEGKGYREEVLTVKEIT

human IL-5R α-chain = target: T4, human IL-5R α-chain (human, UniProt Q01344 21-420); test: flow cytometry, transiently transfected cells
T4 construct: also called Hu-IL5R α chain isoform 1
T4 sequence: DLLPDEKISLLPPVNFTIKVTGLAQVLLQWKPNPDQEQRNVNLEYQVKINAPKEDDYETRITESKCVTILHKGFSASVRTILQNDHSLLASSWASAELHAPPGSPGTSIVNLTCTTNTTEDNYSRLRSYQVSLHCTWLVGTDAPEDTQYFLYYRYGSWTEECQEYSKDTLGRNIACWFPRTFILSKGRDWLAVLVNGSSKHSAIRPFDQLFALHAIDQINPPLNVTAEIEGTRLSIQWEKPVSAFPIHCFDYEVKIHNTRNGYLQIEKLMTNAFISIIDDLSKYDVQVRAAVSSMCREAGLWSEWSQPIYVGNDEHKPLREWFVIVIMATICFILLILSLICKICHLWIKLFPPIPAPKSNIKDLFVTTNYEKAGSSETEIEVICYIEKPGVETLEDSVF

T2 sequence (P26951 19-378 limits assumed): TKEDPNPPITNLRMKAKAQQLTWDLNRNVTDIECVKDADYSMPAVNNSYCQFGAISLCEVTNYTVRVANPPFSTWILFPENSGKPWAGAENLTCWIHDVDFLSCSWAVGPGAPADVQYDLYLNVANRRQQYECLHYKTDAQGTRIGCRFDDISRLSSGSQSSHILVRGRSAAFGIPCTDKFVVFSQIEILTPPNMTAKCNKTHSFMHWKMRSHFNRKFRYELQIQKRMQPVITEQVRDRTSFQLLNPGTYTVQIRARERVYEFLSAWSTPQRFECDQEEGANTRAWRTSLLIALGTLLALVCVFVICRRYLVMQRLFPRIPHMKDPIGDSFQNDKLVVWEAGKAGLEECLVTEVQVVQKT

IC50 GM-CSF, TF-1 proliferation (human CD131): 456 nM
IC50 IL-3, TF-1 proliferation (human CD131): 5.96 nM
IC50 IL-5, TF-1 proliferation (human CD131): 1450 nM
pStat5 IC50 GM-CSF, TF-1 bla reporter (human CD131): 40 nM
pStat5 IC50 IL-3, TF-1 bla reporter (human CD131): 7.3 nM
binding result (human IL-3R α-chain): no binding
binding result (human GM-CSFR α-chain): no binding
binding result (human IL-5R α-chain): no binding
B1: 9A2 (antibody, IgG4, V domains shown)
VH: EVQLLESGGGLVQPGGSLRLSCAASGFTFSHYHMLWVRQAPGKGLEWVSSIRSSGGFTYYADSVKGRFTISRDNSKNTLYLQMNSLRAEDTAVYYCARFYDSFFDIWGQGTMVTVSS
VL: DIQMTQSPSSVSASVGDRVTITCRASQGISSWLAWYQQKPGKAPKLLIYAASSLQSGVPSRFSGSGSGTDFTLTISSLQPEDFATYYCQQANSFPITFGQGTRLEIKR
notes: IgG4pK (IgG4 S241P, kappa); also called parental 9A2
